In one test the target is T1, K31A.
T1 construct: also called hCD27 K31A
T1 receptor chain: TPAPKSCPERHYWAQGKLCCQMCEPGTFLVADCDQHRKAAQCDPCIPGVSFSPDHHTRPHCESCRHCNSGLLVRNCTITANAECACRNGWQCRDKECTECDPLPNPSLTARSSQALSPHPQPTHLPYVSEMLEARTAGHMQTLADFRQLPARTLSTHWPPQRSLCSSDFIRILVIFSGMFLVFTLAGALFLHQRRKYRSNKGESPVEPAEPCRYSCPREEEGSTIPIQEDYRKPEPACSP
As to the kind of experiment: flow cytometry on CHO-K1 transfectants, cell hatched (loss of binding).

The next test has as its target T2, Q41A.
T2 construct: also called hCD27 Q41A
T2 receptor chain: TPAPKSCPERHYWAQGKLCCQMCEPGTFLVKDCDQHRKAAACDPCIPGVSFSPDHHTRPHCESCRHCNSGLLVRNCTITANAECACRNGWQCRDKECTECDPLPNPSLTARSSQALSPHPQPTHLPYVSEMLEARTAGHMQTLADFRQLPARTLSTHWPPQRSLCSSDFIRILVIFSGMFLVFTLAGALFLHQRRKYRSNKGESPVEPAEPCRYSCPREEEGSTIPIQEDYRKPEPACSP
Described as above.

A further test has as its target T3, D43A.
T3 construct: also called hCD27 D43A
T3 receptor chain: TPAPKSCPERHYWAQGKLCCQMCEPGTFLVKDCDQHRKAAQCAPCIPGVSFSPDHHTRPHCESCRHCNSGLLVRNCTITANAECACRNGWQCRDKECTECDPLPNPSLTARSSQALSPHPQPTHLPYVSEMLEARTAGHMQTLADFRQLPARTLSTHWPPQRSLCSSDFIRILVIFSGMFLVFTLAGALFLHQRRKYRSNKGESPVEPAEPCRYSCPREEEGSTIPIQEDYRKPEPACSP
Described as above.

For a further test, the target named is T4, human CD27 (A59T) (human, UniProt P26842 21-260).
T4 construct: also called hCD27 (A59T); human CD27 variant p.Ala59Thr
The test is described as follows: cell ELISA on CHO-K1 transfectants (selection of the clone).

Test [1] has as its target T5, Macaca mulatta CD27 (mmCD27) (Macaca mulatta (rhesus) / Macaca …, UniProt P26842 21-260 (human entry)).
T5 construct: also called Rhesus CD27; rhesus monkey CD27
T5 chain: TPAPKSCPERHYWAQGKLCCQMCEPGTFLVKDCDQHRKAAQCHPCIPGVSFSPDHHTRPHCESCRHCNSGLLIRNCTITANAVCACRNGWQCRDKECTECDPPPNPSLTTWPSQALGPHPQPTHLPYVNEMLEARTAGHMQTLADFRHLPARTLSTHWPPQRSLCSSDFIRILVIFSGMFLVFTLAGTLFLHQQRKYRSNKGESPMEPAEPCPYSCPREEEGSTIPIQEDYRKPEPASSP
Described as above.
Protocol: (§1) On day eight, supernatants were screened by cell-ELISA for reactivity to hCD27 as described above. In addition, the hCD27-reactive supernatants were tested for binding to Macaca Mulatta CD27 (mmCD27) expressed on CHO-K1 cells. […] In the cell-ELISA, all incubation steps were followed by a wash step with PBST (PBS with 0.01% Tween 20). Parental CHO-K1, CHO-K1.hCD27, or CHO-K1.mmCD27 cells were seeded (40,000 cells/well) in tissue culture plates and incubated overnight at 37° C. The next day, culture medium was removed and cells were incubated for one hour with (dilutions of) B-cell supernatants at 37° C. […] Subsequently, cells were washed 6 times with PBST and anti-hCD27 immunoreactivity was visualized with 100 μl TMB Stabilized Chromagen (Invitrogen, cat. no. SB02). Reactions were stopped with 100 μl 0.5 M H₂SO₄ and absorbances were read at 460 and 620 nm.
(§2) Hybridoma supernatants were tested in Cell-ELISA experiments for binding to CHO-K1.mmCD27 or CHO-K1 cells expressing hCD27 (A59T), as described above. […] A serial dilution of the supernatants was added.

Another test addresses T6, D32A.
T6 construct: also called hCD27 D32A
T6 receptor chain: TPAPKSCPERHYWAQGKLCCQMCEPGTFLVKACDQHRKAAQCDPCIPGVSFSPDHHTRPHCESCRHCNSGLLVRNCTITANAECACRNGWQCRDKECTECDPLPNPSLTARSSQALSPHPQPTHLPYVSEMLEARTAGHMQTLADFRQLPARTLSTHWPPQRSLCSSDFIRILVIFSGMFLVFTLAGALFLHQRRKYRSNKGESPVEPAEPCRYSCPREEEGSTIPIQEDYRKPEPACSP
As to the kind of experiment: flow cytometry on CHO-K1 transfectants, left sub-column.

Another test concerns the target T7, R10A.
T7 construct: also called hCD27 R10A
T7 receptor chain: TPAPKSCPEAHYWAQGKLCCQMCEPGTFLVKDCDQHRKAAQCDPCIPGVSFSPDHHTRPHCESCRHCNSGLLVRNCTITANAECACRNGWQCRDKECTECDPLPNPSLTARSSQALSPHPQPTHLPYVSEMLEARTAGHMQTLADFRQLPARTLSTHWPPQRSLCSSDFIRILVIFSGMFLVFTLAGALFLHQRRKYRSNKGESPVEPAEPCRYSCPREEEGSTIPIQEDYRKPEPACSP
Described as above.

The target in another test is T8, H60A.
T8 construct: also called hCD27 H60A
T8 receptor chain: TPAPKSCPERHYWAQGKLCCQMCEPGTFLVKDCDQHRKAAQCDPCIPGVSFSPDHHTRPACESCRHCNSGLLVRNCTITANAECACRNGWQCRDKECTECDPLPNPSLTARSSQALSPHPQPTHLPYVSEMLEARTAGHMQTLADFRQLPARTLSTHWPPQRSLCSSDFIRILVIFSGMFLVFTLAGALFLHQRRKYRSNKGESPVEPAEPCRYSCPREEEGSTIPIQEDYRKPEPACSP
Described as above.

For a further test, the target named is T9, W13A.
T9 construct: also called hCD27 W13A
T9 receptor chain: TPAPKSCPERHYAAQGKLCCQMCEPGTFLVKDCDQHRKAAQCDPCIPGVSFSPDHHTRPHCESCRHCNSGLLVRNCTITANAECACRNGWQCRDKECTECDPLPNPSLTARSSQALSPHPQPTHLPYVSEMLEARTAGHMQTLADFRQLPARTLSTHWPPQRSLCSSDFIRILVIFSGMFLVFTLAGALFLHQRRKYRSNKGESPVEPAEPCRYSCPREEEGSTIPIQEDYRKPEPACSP
The test is described as above.

Another test deals with T10, K38A.
T10 construct: also called hCD27 K38A
T10 receptor chain: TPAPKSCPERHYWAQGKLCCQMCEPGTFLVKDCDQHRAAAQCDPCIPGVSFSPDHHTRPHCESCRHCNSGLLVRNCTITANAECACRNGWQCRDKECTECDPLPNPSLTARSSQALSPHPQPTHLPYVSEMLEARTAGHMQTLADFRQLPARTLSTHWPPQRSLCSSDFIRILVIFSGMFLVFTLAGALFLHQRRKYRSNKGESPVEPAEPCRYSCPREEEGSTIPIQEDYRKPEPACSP
The test is described as follows: flow cytometry on CHO-K1 transfectants, right sub-column, cell hatched (loss of binding).

Protocol for D32A: (§3) The hCD27 variants that were tested are listed. Amino acids correspond to the UniProt P26842-1 sequence. Amino acids 1-20 constitute the signal peptide. Binding is expressed as the geometric mean of the FITC signal, relative to antibody binding to hCD27, which was set at 100%.
(§4) The ability of several anti-hCD27 antibodies to bind to a series of hCD27 alanine mutants was determined using CHO-K1 cells, transiently transfected pCI-neo empty vector, pCI-neo.hCD27 and several pCI-neo.CD27Ala mutant constructs.
(§5) Detached cells were transferred to 96 wells round-bottomed well plates at approximately 1.2×10⁵ cells/well. After spinning down the cells, discarding the supernatants and re-suspending the cells in the residual volume, the primary antibodies were added and incubated for 30 minutes at 4° C. Cells were washed three times with DPBS/BSA 1%, followed by centrifugation, discarding of the supernatants and re-suspension in the residual volume. […] After washing once, antibody binding was detected using the HTS plate reader (FACS Canto II) and FlowJo software for data analysis. Debris, dead cells and doublets were excluded from the analysis. Binding was expressed as the geometric mean of the FITC signal, relative to antibody binding to hCD27, which was set at 100%.
Protocol for D43A: as §4, §5
Protocol for H60A: as §3, §4, §5
Protocol for K31A: as §4, §5
Protocol for K38A: as §3, §4, §5
Protocol for Q41A: as §4, §5
Protocol for R10A: as §3, §4, §5
Protocol for W13A: as §3, §4, §5
Protocol for human CD27 (A59T): as §1, §2

B1: hCD27.15-6B (antibody, human IgG4 S228P, kappa, V domains shown)
VH: QVQLVQSGAEVKKPGASVKVSCKASGFIIKATYMHWVRQAPGQRLEWMGRIDPANGETKYDPKFQVRVTITADTSASTAYMELSSLRSEDTAVYYCARYAWYFDVWGQGTLVTVSS
VL: DIQMTQSPSSLSASVGDRVTITCRASENIYSFLAWYQQKPGKAPKLLIYHAKTLAEGVTSRFSGSGSGTDFTLTISSLQPEDSATYYCQHYYGSPLTFGQGTRLEIKR
notes: also called hCD27.15 (humanized 6B); humanized hCD27.15 (human IgG4, Clone 6B)
In the case of B1, the “binding, WT hCD27 = 100 (GM FITC)” value worked out at 30.3% in the test with K31A, 33.9% in the test with Q41A and 31% with D43A.

B2: hCD27.131A (mouse parental 131A) (antibody, mouse IgG1, V domains shown)
VH: QIQLVQSGPELKKPGETVKISCKASGYTFTNYGMNWVKQAPGKGLKWMGWINTNTGEPTYAEEFKGRFAFSLETSATTAYLQINNLKNEDTATYFCAREGDAMDYWGQGTSVTVSS
VL: QIVLTQSPAIMSASPGEKVTMTCSASSSVSYMHWYQQKSGTSPKRWIYDTSKLASGVPARFSGSGSGTSYSLTISSMEAEDAATYYCQQWNSYPFTFGSGTKLEIK
notes: Mouse IgG1 antibody; also called mouse hCD27.131A
For the molecule B2, the binding result (in the test with human CD27 (A59T); in test [1]) was “binds” in each case. In addition, the “binding, WT hCD27 = 100 (GM FITC)” value with D32A came to 113%; with R10A it was 103%; with H60A, 178%; with W13A, 86%; with K38A, 11.8%.

Source of the values: patent publication US20180086841A1 (Merck Sharp & Dohme, published 2018).
